This note sets out measurements from patent publication US6312690, “Monoclonal recombinant anti-rhesus D (D7C2) antibody” (Institut Pasteur, dated 2001).

Positions count from the first letter of the chain named.

The target in assay [1] is T1, Rhesus D antigen (human, UniProt Q02161).
T1 sequence: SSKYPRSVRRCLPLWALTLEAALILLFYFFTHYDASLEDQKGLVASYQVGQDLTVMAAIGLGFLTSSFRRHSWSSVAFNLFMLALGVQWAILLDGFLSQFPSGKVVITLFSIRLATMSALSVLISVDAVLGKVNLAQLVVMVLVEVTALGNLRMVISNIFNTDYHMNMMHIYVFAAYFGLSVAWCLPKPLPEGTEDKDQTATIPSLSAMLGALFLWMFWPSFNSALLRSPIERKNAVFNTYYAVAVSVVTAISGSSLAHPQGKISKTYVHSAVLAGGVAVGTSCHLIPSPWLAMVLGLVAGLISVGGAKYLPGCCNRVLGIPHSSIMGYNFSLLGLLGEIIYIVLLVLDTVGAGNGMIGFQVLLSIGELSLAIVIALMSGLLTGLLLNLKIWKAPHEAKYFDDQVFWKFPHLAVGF

For assay [2], the target named is T1, Rhesus D antigen. The experiment in a line: agglutination titre on a pool of papain-treated R1/r red blood cells, one hour at 37° C.
For assay [3], the target named is T1, Rhesus D antigen. The assay is described as follows: agglutination of red blood cells.

In the case of “"irrelevant" recombinant antibody (IgG1, κ) directed against a protein other than the Rhesus antigen”, the % specific lysis (ADCC test, 51Cr release) (% specific lysis) with Rhesus D antigen [1] is 0.

B1: r-IgG-D7C2 recombinant monoclonal antibody (antibody, V domains shown)
VH: QVQLEQWGAGLLKPSETLSLTCTVYGGSFSGYYWSWIRQPPGKGLEWIGEINHSGSTNYNPSLKSRVTISVDTSKNQFSLKLNSVTAADTAVYYCARAPEYKWKYHGDWFDPWGQGTTVTVSS
VL: DIELTQDPAVSVALGQTVRITCQGDSLRTYYASWYQQKPGQAPVLVIYGKNNRPSGIPDRFSGSSSGNTASLTITGAQAEDEADYFCNSGGKVFGGGTKLTVLG
In the case of B1, the % specific lysis (ADCC test, 51Cr release) (% specific lysis) with Rhesus D antigen [1] worked out at 93.3. The molecule also returned a titre (titre (1/x dilution)) in the assay with Rhesus D antigen [2] of 512.

B2: IgM-D7C2 human parental monoclonal antibody (antibody, V domains shown)
VH: B1 VH with E5Q
VL: B1 VL with D1Q, I2S, E3V
As to B2, in the assay with Rhesus D antigen [3], the binding result was “binds”.
